US20140274782A1, “AFFINITY REAGENTS AND METHODS FOR DETECTION, PURIFICATION, AND PROTEOMIC ANALYSIS OF METHYLATED PROTEINS” (The Board of Trustees of the Leland Stanford Junior …, priority 2013, published 2014)

Key:
G9a = target: T1, G9a (Homo sapiens, UniProt Q96KQ7); assay: In vitro methylation reaction with 3H-SAM, autoradiograph; format: biochemical; settings: recombinant SIRT1, recombinant G9a SET domain
T1 construct: in vitro methylation assays on SIRT1 and SIRT1K622R using recombinant G9a SET domain
T1 sequence (Q96KQ7 1038-1155 limits assumed, species assumed): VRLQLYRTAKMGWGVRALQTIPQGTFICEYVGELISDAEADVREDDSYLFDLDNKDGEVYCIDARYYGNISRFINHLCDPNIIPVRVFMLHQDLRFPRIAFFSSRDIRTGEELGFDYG
Experimental: Recombinant GST-SIRT1 was expressed by baculoviral transduction of the Sf9 insect cell line as previously described (Levy et al. (2011) Nat. Immunol. 12, 29-36). A panel of enzymes was tested for ability to methylate recombinant SIRT1 using ^3H-SAM in in vitro methylation reactions (Kuo et al. (2011) Mol. Cell 44, 609-620). SIRT1K622R was generated by site-directed mutagenesis (Stratagene). For the pull-down experiment, 293T cells were transfected with a 10:1 enzyme:substrate DNA ratio. 150 μg of nuclear proteins were used for pull-downs with 3×MBT or 3×MBTD355N coupled GSH-Sepharose as described above.

3×MBT domain of L3MBTL1 = assay: SILAC proteomic pull-down 3×MBT vs 3×MBTD355N from 293T nuclear extract, LC-MS/MS; format: binding, human; settings: SILAC ratio, 293T nuclear extract pull-down; * = protein identified in only one labeling experiment
Experimental: Protein pull-downs were performed as described above using 600 μg of nuclear extract prepared with isotopic labels as indicated. After eluting with glutathione, 3×MBT domain was removed by dialysis into high salt and rebinding to GSH-sepharose. Bound proteins were separated by SDS-PAGE and analyzed by in-gel tryptic digest followed by LC-MS/MS. Peptides were identified using MaxQuant version 1.2.2.5 (Cox and Mann (2008) Nat. Biotechnol. 26, 1367-1372) and candidate methylated peptides were verified by manual inspection.
For stable isotope labeling by amino acids in cell culture (SILAC) experiments HEK 293T cells were grown for at least six doublings in DMEM for SILAC supplemented with 10% dialyzed fetal bovine serum (FBS), 230 mg/L L-proline and either 100 mg/L each of L-lysine and L-arginine (“light” medium), D4-L-lysine and ^13C6-L-arginine (“medium” media), or ^13C6^15N2-L-lysine and ^13C6^15N4-L-arginine (Thermo Scientific). Heavy methyl labeling used DMEM without L-Methionine or L-Cysteine supplemented with D3^13C-L-Methionine (Sigma), L-Cysteine (Sigma) and 10% dialyzed FBS.
600 μg of nuclear extract was incubated overnight rotating at 4° C. with 20 μl packed 3×MBT or 3×MBTD355N beads in a total volume of 250 μL with binding buffer. Supernatant was removed and saved for use as a loading control. Beads were washed 4×5 minutes with 0.5 mL binding buffer. Protein was eluted by incubating in 20 μL elution buffer (10 mg/mL glutathione in 50 mM Tris pH 8.0) rotating at 4° C. for four hours. Elutions from 3×MBT and 3×MBTD355N were combined and dialyzed overnight at 4° C. against 10,000× volume of dissociation buffer (50 mM Tris pH 7.5, 750 mM NaCl) in a 0.1 mL Slide-A-Lyzer MINI Dialysis Device with 3.5K molecular weight cutoff (Thermo Scientific). 80 μL of GSH-Sepharose was prepared by washing briefly three times with 0.5 mL binding buffer. Dialyzed proteins were added to the GSH-Sepharose and incubated 4 hours rotating at 4° C. to deplete the GST-fusion domains. Supernatant was transferred to a fresh 1.5 mL tube. Proteins were separated by SDS-PAGE on a 10% polyacrylamide gel and stained using SilverQuest Silver Staining Kit (Life Technologies). Lanes were excised, residual 3×MBT band was removed, and gel was diced into 0.5 mm cubes. Gel pieces were destained and processed by in-gel digestion (Carlson et al. (2011) Science Signaling 4) with sequencing grade trypsin (Promega) and the peptide sample was dried completely in a vacuum centrifuge. To prepare a loading control, 2 μL each of light and heavy nuclear extract were combined, 6 μL of 8M urea was added, proteins were denatured by adding 2 μL of 100 mM dithiothreitol in digest buffer (50 mM ammonium bicarbonate) and heating to 60° C. for 1 hour, cysteine was alkylated by adding 2.2 μL 100 mg/mL iodoacetamide in digest buffer and incubating 1 hour at room temperature in darkness, and proteins were digested by adding 80 μL trypsin (Promega) at 12.5 ng/μL in digest buffer and incubating overnight at room temperature in darkness. Digestion was stopped by adding 10 μL of 10% formic acid.
Each experiment consisted of two sets of pull-downs: “forward” labeling with 3×MBT incubated with light nuclear extract and 3×MBTD355N with medium extract, and a second “reverse” labeling experiment with the label conditions swapped. Proteins were included in the results if they were quantified in both labeling directions. To determine reproducibility the entire experiment including the label swap was duplicated using independent protein preparations and a mass spectrometer at another institution.
For 3×MBT pull-down experiment #1 the gel lane was processed and peptides were loaded off-line onto a first dimension trap column (Waters Xbridge, C18, 10 μm particle size, 100 Å pore size, 5 cm packing length, 150 μm column i.d.). […]

B1: SIRT1: NAD-dependent lysine deactylase SIRT1 (protein, UniProt Q96EB6 2-747, looked up)
NAD-dependent protein …: ADEAALALQPGGSPSAAGADREAASSPAGEPLRKRPRRDGPGLERSPGEPGGAAPEREVPAAARGCPGAAAAALWREAEAEAAAAGGEQEAQATAAAGEGDNGPGLQGPSREPPLADNLYDEDDDDEGEEEEEAAAAAIGYRDNLLFGDEIITNGFHSCESDEEDRASHASSSDWTPRPRIGPYTFVQQHLMIGTDPRTILKDLLPETIPPPELDDMTLWQIVINILSEPPKRKKRKDINTIEDAVKLLQECKKIIVLTGAGVSVSCGIPDFRSRDGIYARLAVDFPDLPDPQAMFDIEYFRKDPRPFFKFAKEIYPGQFQPSLCHKFIALSDKEGKLLRNYTQNIDTLEQVAGIQRIIQCHGSFATASCLICKYKVDCEAVRGDIFNQVVPRCPRCPADEPLAIMKPEIVFFGENLPEQFHRAMKYDKDEVDLLIVIGSSLKVRPVALIPSSIPHEVPQILINREPLPHLHFDVELLGDCDVIINELCHRLGGEYAKLCCNPVKLSEITEKPPRTQKELAYLSELPPTPLHVSEDSSSPERTSPPDSSVIVTLLDQAAKSNDDLDVSESKGCMEEKPQEVQTSRNVESIAEQMENPDLKNVGSSTGEKNERTSVAGTVRKCWPNRVAKEQISRRLDGNQYLFLPPNRYIFHGAEVYSDSEDDVLSSSSCGSNSDSGTCQSPSLEEPMEDESEIEEFYNGLEDEPDVPERAGGAGFGTDGDDQEAINEAISVKQEVTDMNYPSNKS
modifications: GST or 3xFlag tag
**Q.** How did the “in vitro methylation by G9a” value (G9a) turn out when B1 was run?
**A.** methylates the NAD-dependent lysine deactylase SIRT1 at lysine 622

B2: eEF1A2: protein with methylated lysine identified in 3xMBT pull-down (protein, UniProt Q05639 2-463, looked up)
Elongation factor 1-alpha 2: GKEKTHINIVVIGHVDSGKSTTTGHLIYKCGGIDKRTIEKFEKEAAEMGKGSFKYAWVLDKLKAERERGITIDISLWKFETTKYYITIIDAPGHRDFIKNMITGTSQADCAVLIVAAGVGEFEAGISKNGQTREHALLAYTLGVKQLIVGVNKMDSTEPAYSEKRYDEIVKEVSAYIKKIGYNPATVPFVPISGWHGDNMLEPSPNMPWFKGWKVERKEGNASGVSLLEALDTILPPTRPTDKPLRLPLQDVYKIGGIGTVPVGRVETGILRPGMVVTFAPVNITTEVKSVEMHHEALSEALPGDNVGFNVKNVSVKDIRRGNVCGDSKSDPPQEAAQFTSQVIILNHPGQISAGYSPVIDCHTAHIACKFAELKEKIDRRSGKKLEDNPKSLKSGDAAIVEMVPGKPMCVESFSQYPPLGRFAVRDMRQTVAVGVIKNVEKKSGGAGKVTKSAQKAQKAGK
**Q.** With B2 as the molecule, how does the “Protein Ratio 3xMBT/D355N” value (3×MBT domain of L3MBTL1) read?
**A.** 1.5

B3: FAM50A: protein with methylated lysine identified in 3xMBT pull-down (protein, UniProt Q14320 2-339, looked up)
Protein FAM50A: AQYKGAASEAGRAMHLMKKREKQREQMEQMKQRIAEENIMKSNIDKKFSAHYDAVEAELKSSTVGLVTLNDMKAKQEALVKEREKQLAKKEQSKELQMKLEKLREKERKKEAKRKISSLSFTLEEEEEGGEEEEEAAMYEEEMEREEITTKKRKLGKNPDVDTSFLPDRDREEEENRLREELRQEWEAKQEKIKSEEIEITFSYWDGSGHRRTVKMRKGNTMQQFLQKALEILRKDFSELRSAGVEQLMYIKEDLIIPHHHSFYDFIVTKARGKSGPLFNFDVHDDVRLLSDATVEKDESHAGKVVLRSWYEKNKHIFPASRWEPYDPEKKWDKYTIR
modifications: methylated lysine
notes: protein with methylated lysine identified in 3xMBT pull-down
**Q.** For B3, which “Protein Ratio 3xMBT/D355N” value (3×MBT domain of L3MBTL1) is on record?
**A.** 3.7*

B4: hnRNP D: protein with methylated lysine identified in 3xMBT pull-down (protein, UniProt Q14103 2-355, looked up)
Heterogeneous nuclear …: SEEQFGGDGAAAAATAAVGGSAGEQEGAMVAATQGAAAAAGSGAGTGGGTASGGTEGGSAESEGAKIDASKNEEDEGHSNSSPRHSEAATAQREEWKMFIGGLSWDTTKKDLKDYFSKFGEVVDCTLKLDPITGRSRGFGFVLFKESESVDKVMDQKEHKLNGKVIDPKRAKAMKTKEPVKKIFVGGLSPDTPEEKIREYFGGFGEVESIELPMDNKTNKRRGFCFITFKEEEPVKKIMEKKYHNVGLSKCEIKVAMSKEQYQQQQQWGSRGGFAGRARGRGGGPSQNWNQGYSNYWNQGYGNYGYNSQGYGGYGGYDYTGYNNYYGYGDYSNQQSGYGKVSRRGGHQNSYKPY
**Q.** B4 was tested. Which “Protein Ratio 3xMBT/D355N” value (3×MBT domain of L3MBTL1) did it give?
**A.** 22.5

B5: TUBB4: protein with methylated lysine identified in 3xMBT pull-down (protein, UniProt P04350 1-444, looked up)
Tubulin beta-4A chain: MREIVHLQAGQCGNQIGAKFWEVISDEHGIDPTGTYHGDSDLQLERINVYYNEATGGNYVPRAVLVDLEPGTMDSVRSGPFGQIFRPDNFVFGQSGAGNNWAKGHYTEGAELVDAVLDVVRKEAESCDCLQGFQLTHSLGGGTGSGMGTLLISKIREEFPDRIMNTFSVVPSPKVSDTVVEPYNATLSVHQLVENTDETYCIDNEALYDICFRTLKLTTPTYGDLNHLVSATMSGVTTCLRFPGQLNADLRKLAVNMVPFPRLHFFMPGFAPLTSRGSQQYRALTVPELTQQMFDAKNMMAACDPRHGRYLTVAAVFRGRMSMKEVDEQMLSVQSKNSSYFVEWIPNNVKTAVCDIPPRGLKMAATFIGNSTAIQELFKRISEQFTAMFRRKAFLHWYTGEGMDEMEFTEAESNMNDLVSEYQQYQDATAEEGEFEEEAEEEVA
**Q.** B5 was tested. Which “Protein Ratio 3xMBT/D355N” value (3×MBT domain of L3MBTL1) did it give?
**A.** 1.9
